Test [1] addresses complement iC3b on erythrocytes (EAiC3b) (human) (UniProt P01024). The test can be described thus: fluid-phase rA-domain against EAiC3b binding to immobilized rA-domain.
In test [2] the target is recombinant Ancylostoma caninum neutrophil adhesion inhibitor (NIF) (Ancylostoma caninum). The test can be described thus: competition: fluid-phase r11bA against biotinylated rNIF binding to human neutrophils, FACS.
Test [3] shares this target. The test is described as follows: competition: fluid-phase r11bA against biotinylated rNIF binding to immobilized r11bA, plate assay.
The target in test [4] is CD11b/CD18 on human neutrophils (human) (UniProt P05107). The test is described as follows: Scatchard plot, biotinylated rNIF on resting or activated neutrophils at 4 C, FACS.
Test [5] addresses recombinant CD11b A domain (human) (UniProt P11215). The test is described as follows: Scatchard analysis of biotinylated rNIF binding to immobilized rA-domain.
Test [6] deals with CD11b/CD18 on human neutrophils (human) (UniProt P05107). The test is described as follows: dissociation of biotinylated rNIF from washed neutrophils at 4 C, FACS.
For test [7] the target is unchanged. The test is described as follows: time course of biotinylated NIF binding to neutrophils at 4 C, FACS.
Test [8] has the same target. The test is described as follows: biotinylated rNIF on f-met-leu-phe activated against resting neutrophils, FACS.
Test [9] addresses recombinant human CD11b/CD18 expressed in COS cells (human) (UniProt P05107). The test can be described thus: rNIF against EAiC3b binding to recombinant CD11b/CD18 on COS cells, fluorescence.

Here are results for two substances from patent US20050227296A1, “Method for indentifying integrin antagonists” (The General Hospital Corporation, a Massachusetts …, priority 1988, published 2005).

The IC50 is the concentration needed to halve the response being measured. The term Kd denotes the constant that tells how readily two partners part at equilibrium.

Sequence of complement iC3b on erythrocytes (EAiC3b) (human) (P01024 23-667 limits assumed, chain 1 of 3): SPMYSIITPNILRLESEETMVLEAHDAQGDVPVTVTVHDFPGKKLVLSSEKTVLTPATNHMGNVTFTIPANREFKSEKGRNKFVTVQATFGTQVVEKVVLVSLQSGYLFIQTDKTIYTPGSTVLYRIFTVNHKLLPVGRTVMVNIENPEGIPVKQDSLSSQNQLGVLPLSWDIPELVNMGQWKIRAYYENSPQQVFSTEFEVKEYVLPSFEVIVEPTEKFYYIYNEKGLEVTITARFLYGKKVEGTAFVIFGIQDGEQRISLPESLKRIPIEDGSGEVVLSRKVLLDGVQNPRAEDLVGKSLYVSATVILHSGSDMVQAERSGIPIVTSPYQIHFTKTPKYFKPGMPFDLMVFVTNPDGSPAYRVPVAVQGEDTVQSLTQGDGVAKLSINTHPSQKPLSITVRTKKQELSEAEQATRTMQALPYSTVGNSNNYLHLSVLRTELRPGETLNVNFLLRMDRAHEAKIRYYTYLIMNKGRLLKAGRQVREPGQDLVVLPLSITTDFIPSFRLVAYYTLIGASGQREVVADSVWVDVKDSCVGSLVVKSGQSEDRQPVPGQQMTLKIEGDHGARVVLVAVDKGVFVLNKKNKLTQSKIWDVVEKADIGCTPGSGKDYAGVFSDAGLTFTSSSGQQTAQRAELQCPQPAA
Sequence of complement iC3b on erythrocytes (EAiC3b) (human) (P01024 749-1303 limits assumed, chain 2 of 3): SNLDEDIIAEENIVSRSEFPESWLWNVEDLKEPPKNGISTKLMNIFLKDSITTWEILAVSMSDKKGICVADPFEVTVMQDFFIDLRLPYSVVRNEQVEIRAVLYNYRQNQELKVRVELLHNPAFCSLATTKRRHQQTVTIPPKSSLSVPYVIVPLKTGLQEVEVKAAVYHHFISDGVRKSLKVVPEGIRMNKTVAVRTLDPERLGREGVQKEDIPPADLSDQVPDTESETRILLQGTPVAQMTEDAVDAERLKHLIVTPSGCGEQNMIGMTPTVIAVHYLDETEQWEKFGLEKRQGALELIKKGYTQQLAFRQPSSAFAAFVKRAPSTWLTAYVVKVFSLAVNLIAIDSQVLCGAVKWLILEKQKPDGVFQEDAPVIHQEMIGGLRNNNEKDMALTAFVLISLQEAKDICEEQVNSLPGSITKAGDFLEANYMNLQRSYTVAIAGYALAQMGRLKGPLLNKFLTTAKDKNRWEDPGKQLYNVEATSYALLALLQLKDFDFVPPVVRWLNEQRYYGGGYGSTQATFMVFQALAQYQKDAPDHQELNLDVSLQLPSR
Sequence of complement iC3b on erythrocytes (EAiC3b) (human) (P01024 1321-1663 limits assumed, chain 3 of 3): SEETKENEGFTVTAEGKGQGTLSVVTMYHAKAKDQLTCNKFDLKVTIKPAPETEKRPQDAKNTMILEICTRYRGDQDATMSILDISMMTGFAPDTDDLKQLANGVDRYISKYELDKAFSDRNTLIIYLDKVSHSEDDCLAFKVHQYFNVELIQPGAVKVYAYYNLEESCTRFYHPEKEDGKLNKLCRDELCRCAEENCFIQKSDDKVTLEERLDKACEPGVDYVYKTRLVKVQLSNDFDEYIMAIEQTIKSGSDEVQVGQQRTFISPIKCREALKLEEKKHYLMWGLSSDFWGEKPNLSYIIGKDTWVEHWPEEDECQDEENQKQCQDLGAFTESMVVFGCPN

Turning to “recombinant CD11b A domain (from UniProt P11215 144-337) (receptor)”, the figures for the IC50 in test [1], in [2] and in test [3] were 1000 µM, 0.001 µM and 0.001 µM, respectively.

For the substance “recombinant Ancylostoma caninum neutrophil adhesion inhibitor (NIF) (ligand)”, the Kd in [4] is 0.00035 to 0.0013 µM; in test [5] it was 0.001 µM. In addition, the t1/2 of dissociation in test [6] was 7.6 h. Also, the t1/2 of association in test [7] came out at 0.25 h. For the same substance, in [8], the fold increase in NIF binding to activated vs resting cells is 12 fold. For the same substance, the IC50 in [9] worked out at 0.005 µM. The concentration for complete inhibition in [9] stood at 3 mg/mL.
